Values quoted from earlier work, collected in paper PMC12608641.
pKd: −log10 of the molar value.

Target: p55 (Homo sapiens) (UniProt Q9UHN1)
Assay: ultracentrifugation

pKd: > 10.00
Substance: p55 (from UniProt Q9UHN1)
